Measured values as given in US20080152653A1.

Biological target: mouse α4 integrin (mouse) (UniProt Q00651)
Test: cell-based or functional assay

UniProt Q00651, sequence (Q00651 41-1039, form in doubt, chain 1 of 2): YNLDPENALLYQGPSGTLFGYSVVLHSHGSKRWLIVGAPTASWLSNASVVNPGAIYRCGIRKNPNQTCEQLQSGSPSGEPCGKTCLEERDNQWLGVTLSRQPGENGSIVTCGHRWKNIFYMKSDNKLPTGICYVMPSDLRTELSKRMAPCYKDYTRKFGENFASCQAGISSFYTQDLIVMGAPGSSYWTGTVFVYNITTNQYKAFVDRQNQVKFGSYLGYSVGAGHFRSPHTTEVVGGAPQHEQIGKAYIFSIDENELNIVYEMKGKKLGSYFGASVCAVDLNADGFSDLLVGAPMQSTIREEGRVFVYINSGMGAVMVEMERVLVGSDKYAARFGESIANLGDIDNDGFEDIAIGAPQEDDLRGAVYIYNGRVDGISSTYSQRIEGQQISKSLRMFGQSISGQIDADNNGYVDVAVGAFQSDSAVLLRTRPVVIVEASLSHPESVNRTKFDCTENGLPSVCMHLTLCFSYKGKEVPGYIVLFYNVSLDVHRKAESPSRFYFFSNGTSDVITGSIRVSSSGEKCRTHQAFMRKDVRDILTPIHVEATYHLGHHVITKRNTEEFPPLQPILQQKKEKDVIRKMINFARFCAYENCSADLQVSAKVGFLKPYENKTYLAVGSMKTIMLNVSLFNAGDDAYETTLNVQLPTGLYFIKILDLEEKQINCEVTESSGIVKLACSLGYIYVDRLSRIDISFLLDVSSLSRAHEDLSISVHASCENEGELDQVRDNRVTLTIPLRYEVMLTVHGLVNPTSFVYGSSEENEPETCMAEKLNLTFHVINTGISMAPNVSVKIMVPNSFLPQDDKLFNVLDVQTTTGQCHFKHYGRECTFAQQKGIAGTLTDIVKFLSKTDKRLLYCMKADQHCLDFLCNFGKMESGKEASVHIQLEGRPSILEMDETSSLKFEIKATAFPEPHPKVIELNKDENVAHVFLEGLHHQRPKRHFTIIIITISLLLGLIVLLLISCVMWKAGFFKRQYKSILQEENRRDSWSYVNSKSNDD
UniProt Q00651, sequence (chain, as listed by the source, form in doubt, chain 2 of 2): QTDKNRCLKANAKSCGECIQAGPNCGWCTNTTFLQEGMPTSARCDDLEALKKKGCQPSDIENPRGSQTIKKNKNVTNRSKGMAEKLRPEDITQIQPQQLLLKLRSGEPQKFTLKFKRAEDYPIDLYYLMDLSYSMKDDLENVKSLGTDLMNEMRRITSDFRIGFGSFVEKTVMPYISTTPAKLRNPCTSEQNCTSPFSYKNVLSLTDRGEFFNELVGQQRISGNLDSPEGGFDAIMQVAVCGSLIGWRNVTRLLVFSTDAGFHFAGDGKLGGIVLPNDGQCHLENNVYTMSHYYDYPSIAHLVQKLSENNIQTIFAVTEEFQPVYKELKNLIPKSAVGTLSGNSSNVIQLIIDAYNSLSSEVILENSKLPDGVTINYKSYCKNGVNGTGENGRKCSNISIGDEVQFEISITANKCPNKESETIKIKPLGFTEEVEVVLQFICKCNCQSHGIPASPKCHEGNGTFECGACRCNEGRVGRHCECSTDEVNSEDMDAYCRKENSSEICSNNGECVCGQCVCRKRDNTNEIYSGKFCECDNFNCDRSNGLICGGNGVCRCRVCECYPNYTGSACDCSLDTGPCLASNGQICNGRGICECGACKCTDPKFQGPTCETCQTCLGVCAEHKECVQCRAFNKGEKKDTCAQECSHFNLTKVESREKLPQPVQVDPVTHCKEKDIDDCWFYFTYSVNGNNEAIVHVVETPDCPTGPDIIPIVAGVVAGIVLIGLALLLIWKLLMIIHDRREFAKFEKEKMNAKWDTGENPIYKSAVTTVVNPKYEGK

In the case of “anti-α4 integrin antibody (clone R1-2) (Pharmingen)”, the inhibition of growth of B16-BL6 cells (Cell Counting Kit 8, O.D. 450), 10 µg/ml antibody is reported as 20%.
